Target: TbRIF5-BB2-HA (T. brucei)
Test: co-IP; cytoplasmic extracts of cells expressing TbDCL1-BB2-FLAG and TbRIF5-BB2-HA; immunoprecipitation with anti-FLAG or anti-HA antibody; Western blot for the common BB2 epitope

- percent of TbDCL1 in the precipitate: 50%
Substance: TbDCL1-BB2-FLAG (enzyme)
